Substitutions are numbered along the chain they refer to. Names may count otherwise. Blank lines part the entries; values can stand above or below the binder they belong to.
Legend:
[1] = biological target: Human CD137 ECD (human); assay: Biacore SPR, vs parent H183/L072
[2] = biological target: Human CD3eg linker (human); assay: SPR; fold vs parent H183/L072
Chain of Human CD3eg linker (human) (chain, as listed by the source limits assumed): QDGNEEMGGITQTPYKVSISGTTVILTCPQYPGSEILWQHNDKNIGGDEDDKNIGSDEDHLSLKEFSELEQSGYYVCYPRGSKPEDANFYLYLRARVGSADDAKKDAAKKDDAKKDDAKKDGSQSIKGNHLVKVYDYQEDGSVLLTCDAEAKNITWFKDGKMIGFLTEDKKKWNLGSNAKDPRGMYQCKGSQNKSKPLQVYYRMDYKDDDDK

Chain of Human CD137 ECD (human) (chain, as listed by the source limits assumed): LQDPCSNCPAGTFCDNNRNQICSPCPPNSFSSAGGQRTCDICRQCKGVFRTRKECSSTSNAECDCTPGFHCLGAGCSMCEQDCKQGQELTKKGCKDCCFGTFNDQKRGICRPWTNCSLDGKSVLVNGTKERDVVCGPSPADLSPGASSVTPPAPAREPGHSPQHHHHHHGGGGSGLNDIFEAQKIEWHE

B2: H183/L072 VL G91R (antibody, name in Kabat numbering, V domains shown)
VH: QVQLVESGGGLVQPGRSLRLSCAASGFTFSNAWMHWVRQAPGKGLEWVAQIKDKGNAYAAYYAPSVKGRFTISRDDSKNSIYLQMNSLKTEDTAVYYCHYVHYASASTVLPAFGVDAWGQGTTVTVSS
VL: DIVMTQSPLSLPVTPGEPASISCQASQELVHMNRNTYLHWYQQKPGQAPRLLIYKVSNRFPGVPDRFSGSGSGTDFTLKISRVEAEDVGVYYCAQRTSVPFTFGQGTKLEIK
fold change of affinity [2]: 0 fold

B3: H183/L072 VL H34N (antibody, name in Kabat numbering, V domains shown)
VH: B2 VH
VL: B2 VL with H39N, R96G
fold change of affinity [1]: 0 fold

B5: H183/L072 VL H34S (antibody, name in Kabat numbering, V domains shown)
VH: B2 VH
VL: B2 VL with H39S, R96G
fold change of affinity [1]: 0 fold

B6: H183/L072 VL F96G (antibody, name in Kabat numbering, V domains shown)
VH: B2 VH
VL: B2 VL with R96G, F101G
fold change of affinity [2]: 0 fold

B9: H183/L072 VL F96N (antibody, name in Kabat numbering, V domains shown)
VH: B2 VH
VL: B2 VL with R96G, F101N
fold change of affinity [2]: 0 fold

B11: H183/L072 VL L33S (antibody, name in Kabat numbering, V domains shown)
VH: B2 VH
VL: B2 VL with L38S, R96G
fold change of affinity [1]: 0 fold

B12: H183/L072 VL A89R (antibody, name in Kabat numbering, V domains shown)
VH: B2 VH
VL: B2 VL with A94R, R96G
fold change of affinity [2]: 0 fold

B13: H183/L072 VL H34G (antibody, name in Kabat numbering, V domains shown)
VH: B2 VH
VL: B2 VL with H39G, R96G
fold change of affinity [1]: 0 fold

B14: H183/L072 VL L33D (antibody, name in Kabat numbering, V domains shown)
VH: B2 VH
VL: B2 VL with L38D, R96G
fold change of affinity [1]: 0 fold

B16: H183/L072 VL G91F (antibody, name in Kabat numbering, V domains shown)
VH: B2 VH
VL: B2 VL with R96F
fold change of affinity [2]: 0 fold

B18: H183/L072 VL K50N (antibody, name in Kabat numbering, V domains shown)
VH: B2 VH
VL: B2 VL with K55N, R96G
fold change of affinity [2]: 0 fold

B23: H183/L072 VL K50F (antibody, name in Kabat numbering, V domains shown)
VH: B2 VH
VL: B2 VL with K55F, R96G
fold change of affinity [2]: 0 fold

B26: H183/L072 VL F96R (antibody, name in Kabat numbering, V domains shown)
VH: B2 VH
VL: B2 VL with R96G, F101R
fold change of affinity [2]: 0 fold

B29: H183/L072 VL A25D (antibody, name in Kabat numbering, V domains shown)
VH: B2 VH
VL: B2 VL with A25D, R96G
fold change of affinity [1]: 0 fold

B30: H183/L072 VL G91N (antibody, name in Kabat numbering, V domains shown)
VH: B2 VH
VL: B2 VL with R96N
fold change of affinity [2]: 0 fold

B31: H183/L072 VL K50Q (antibody, name in Kabat numbering, V domains shown)
VH: B2 VH
VL: B2 VL with K55Q, R96G
fold change of affinity [2]: 0 fold

B33: H183/L072 VL K50W (antibody, name in Kabat numbering, V domains shown)
VH: B2 VH
VL: B2 VL with K55W, R96G
fold change of affinity [2]: 0 fold

B36: H183/L072 VL H34D (antibody, name in Kabat numbering, V domains shown)
VH: B2 VH
VL: B2 VL with H39D, R96G
fold change of affinity [1]: 0 fold

B37: H183/L072 VL F96W (antibody, name in Kabat numbering, V domains shown)
VH: B2 VH
VL: B2 VL with R96G, F101W
fold change of affinity [2]: 0 fold

B39: H183/L072 VL L27bN (antibody, name in Kabat numbering, V domains shown)
VH: B2 VH
VL: B2 VL with L29N, R96G
fold change of affinity [1]: 0 fold

B41: H183/L072 VL A89N (antibody, name in Kabat numbering, V domains shown)
VH: B2 VH
VL: B2 VL with A94N, R96G
fold change of affinity [2]: 0 fold

B44: H183/L072 VL G91W (antibody, name in Kabat numbering, V domains shown)
VH: B2 VH
VL: B2 VL with R96W
fold change of affinity [2]: 0 fold

B45: H183/L072 VL H34T (antibody, name in Kabat numbering, V domains shown)
VH: B2 VH
VL: B2 VL with H39T, R96G
fold change of affinity [1]: 0 fold

B47: H183/L072 VL H34Q (antibody, name in Kabat numbering, V domains shown)
VH: B2 VH
VL: B2 VL with H39Q, R96G
fold change of affinity [1]: 0 fold

Results, then the binder that gave them:

fold change of affinity [1]: 0 fold
B1: H183/L072 VL T31G (antibody, name in Kabat numbering, V domains shown)
VH: B2 VH
VL: B2 VL with T36G, R96G

fold change of affinity [2]: 0 fold
B4: H183/L072 VL Q90F (antibody, name in Kabat numbering, V domains shown)
VH: B2 VH
VL: B2 VL with Q95F, R96G

fold change of affinity [1]: 0 fold
B7: H183/L072 VL N28D (antibody, name in Kabat numbering, V domains shown)
VH: B2 VH
VL: B2 VL with N33D, R96G

fold change of affinity [1]: 0 fold
B8: H183/L072 VL Y32D (antibody, name in Kabat numbering, V domains shown)
VH: B2 VH
VL: B2 VL with Y37D, R96G

fold change of affinity [2]: 0 fold
B10: H183/L072 VL T92W (antibody, name in Kabat numbering, V domains shown)
VH: B2 VH
VL: B2 VL with R96G, T97W

fold change of affinity [2]: 0 fold
B15: H183/L072 VL T97W (antibody, name in Kabat numbering, V domains shown)
VH: B2 VH
VL: B2 VL with R96G, T102W

fold change of affinity [1]: 0 fold
B17: H183/L072 VL Y32T (antibody, name in Kabat numbering, V domains shown)
VH: B2 VH
VL: B2 VL with Y37T, R96G

fold change of affinity [2]: 0 fold
B19: H183/L072 VL V94G (antibody, name in Kabat numbering, V domains shown)
VH: B2 VH
VL: B2 VL with R96G, V99G

fold change of affinity [1]: 0 fold
B20: H183/L072 VL T31N (antibody, name in Kabat numbering, V domains shown)
VH: B2 VH
VL: B2 VL with T36N, R96G

fold change of affinity [2]: 0 fold
B21: H183/L072 VL P95F (antibody, name in Kabat numbering, V domains shown)
VH: B2 VH
VL: B2 VL with R96G, P100F

fold change of affinity [2]: 0 fold
B22: H183/L072 VL Q90W (antibody, name in Kabat numbering, V domains shown)
VH: B2 VH
VL: B2 VL with Q95W, R96G

fold change of affinity [2]: 0 fold
B24: H183/L072 VL V51W (antibody, name in Kabat numbering, V domains shown)
VH: B2 VH
VL: B2 VL with V56W, R96G

fold change of affinity [2]: 0 fold
B25: H183/L072 VL Q90R (antibody, name in Kabat numbering, V domains shown)
VH: B2 VH
VL: B2 VL with Q95R, R96G

fold change of affinity [2]: 0 fold
B27: H183/L072 VL V51F (antibody, name in Kabat numbering, V domains shown)
VH: B2 VH
VL: B2 VL with V56F, R96G

fold change of affinity [2]: 0 fold
B28: H183/L072 VL V51N (antibody, name in Kabat numbering, V domains shown)
VH: B2 VH
VL: B2 VL with V56N, R96G

fold change of affinity [2]: 0 fold
B32: H183/L072 VL Q90G (antibody, name in Kabat numbering, V domains shown)
VH: B2 VH
VL: B2 VL with Q95G, R96G

fold change of affinity [2]: 0 fold
B34: H183/L072 VL Q90N (antibody, name in Kabat numbering, V domains shown)
VH: B2 VH
VL: B2 VL with Q95N, R96G

fold change of affinity [2]: 0 fold
B35: H183/L072 VL P95R (antibody, name in Kabat numbering, V domains shown)
VH: B2 VH
VL: B2 VL with R96G, P100R

fold change of affinity [2]: 0 fold
B38: H183/L072 VL P95W (antibody, name in Kabat numbering, V domains shown)
VH: B2 VH
VL: B2 VL with R96G, P100W

fold change of affinity [2]: 0 fold
B40: H183/L072 VL P95G (antibody, name in Kabat numbering, V domains shown)
VH: B2 VH
VL: B2 VL with R96G, P100G

fold change of affinity [2]: 0 fold
B42: H183/L072 VL V94W (antibody, name in Kabat numbering, V domains shown)
VH: B2 VH
VL: B2 VL with R96G, V99W

fold change of affinity [2]: 0 fold
B43: H183/L072 VL P95N (antibody, name in Kabat numbering, V domains shown)
VH: B2 VH
VL: B2 VL with R96G, P100N

fold change of affinity [1]: 0 fold
B46: H183/L072 VL Y32S (antibody, name in Kabat numbering, V domains shown)
VH: B2 VH
VL: B2 VL with Y37S, R96G
